For one substance, GeoMean results are on record in patent US20180043014A1.

The target in test [1] is GPNMB (CG56972) on the surface of human tumor cell lines (human) (UniProt Q14956). Nature of the test: flow cytometry on intact, non-permeabilized A375 melanoma cells, Treatment: None; primary antibody 10 ug/mL per methods, geometric mean fluorescence intensity. (Flow cytometry measures light scatter and fluorescence of single cells or particles in a stream.)
For test [2] the target is unchanged. As to the kind of experiment: flow cytometry, SF539 (printed SF549) cells, untreated, 12 h; background control.
Test [3] has the same target. Nature of the test: flow cytometry, A375 cells, untreated, 12 h; background control.
The target is the same in test [4]. Nature of the test: flow cytometry, SF539 (printed SF549) cells, untreated, 48 h; background control.
For test [5] the target is unchanged. As to the kind of experiment: flow cytometry, SKMEL2 cells, untreated; background control.
For test [6] the target is unchanged. As to the kind of experiment: flow cytometry, WM2664 cells, untreated; background control.
For test [7] the target is unchanged. Nature of the test: flow cytometry, A375 cells, untreated, 24 h; background control.
Test [8] shares this target. Nature of the test: flow cytometry, A375 cells, untreated, 48 h; background control.
The target is the same in test [9]. Nature of the test: flow cytometry, SF539 (printed SF549) cells, untreated, 24 h; background control.

Chain of GPNMB (CG56972) on the surface of human tumor cell lines (human) (Q14956 23-492): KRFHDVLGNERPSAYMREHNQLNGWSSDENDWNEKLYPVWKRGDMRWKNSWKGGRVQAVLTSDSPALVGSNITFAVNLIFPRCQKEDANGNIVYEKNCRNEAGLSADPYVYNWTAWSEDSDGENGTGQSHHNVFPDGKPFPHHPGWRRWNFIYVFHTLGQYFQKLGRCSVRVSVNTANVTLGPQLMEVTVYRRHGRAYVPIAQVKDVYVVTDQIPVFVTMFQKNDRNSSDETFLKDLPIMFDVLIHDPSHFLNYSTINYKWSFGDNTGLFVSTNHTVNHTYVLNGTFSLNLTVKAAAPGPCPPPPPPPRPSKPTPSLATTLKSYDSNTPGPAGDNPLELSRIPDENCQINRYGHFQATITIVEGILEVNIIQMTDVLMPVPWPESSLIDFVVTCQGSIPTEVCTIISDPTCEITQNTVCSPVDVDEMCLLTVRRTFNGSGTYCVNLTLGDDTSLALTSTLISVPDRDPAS

“unrelated human IgG2 isotype control monoclonal antibody”: the GeoMean stood at 8.4 in test [1]; 8.2 in [2]; 7.4 in [3]; 9.5 in test [4]; 6.9 in test [5]; 7.3 in test [6]. For the same substance, the results for the GeoMean in test [7], in [8] and in test [9] were 7.5, 7.8 and 8.7, respectively.
